Reference: US20170002075A1 (AbbVie / Abbott, published 2017)

Assays:
[1] = target: T1, hRAGE (1-331) / human sRAGE 1-331, V#400 (human, UniProt Q15109 23-331); test: Biacore SPR, mAb captured via anti-mouse Fc, human sRAGE 1-331 (V#400) injected, concurrent experiment, 1:1 fit
T1 construct: also called sRAGE [RAGE (1-331)]; RAGE (antigen of the Biacore runs)
Text: Biacore 2000 and Biacore T100 instruments were used to measure anti-RAGE mAb binding kinetics. The assay format for mAb affinity analysis was Fc-based capture via immobilized anti-Fc antibodies. A standard amine coupling protocol was employed to immobilize Fc-specific IgG via primary amines to the carboxy-methyl (CM) dextran surface of CM5 sensorchips (Biacore). For the study of mouse anti-RAGE mAbs, anti-mouse Fc (Biacore, anti-mouse, BR-1005-14) was used as the immobilized capture reagent and for the study of humanized anti-RAGE mAbs, anti-human Fc (Pierce 31125) was used as the immobilized capture reagent. An automated protocol, available on the Biacore 2000 and Biacore T100, was used to immobilize 8000-10000 RU of capture reagent in all 4 flowcells of the sensorchip. Briefly, the CM-dextran surfaces were activated by freshly prepared 1:1 50 mM N-hydroxysuccinimide (NHS):200 mM 3-(N,N-dimethylamino) propyl-N-ethylcarbodiimide (EDC). Then the anti-Fc IgG capture reagent (20 ug/ml in 10 mM sodium acetate, pH4.5) was applied to the surface followed by deactivation of the surface and blocking of the residual reactive sites with 1M ethanolamine (pH 8.5).
Data were processed using either Biacore evaluation software or Scrubber 2.0 software (BioLogic Software). Briefly, the data were double referenced by first, subtracting the signal from the reference cell and second, by subtracting the signal from buffer-only injections. The double referenced data for the RAGE injection series were then fit globally to a 1:1 (Langmuir) binding model, which included a mass transfer term, to determine the binding kinetic rate constants, kₐ and kd, and the affinity, KD (kₐ=kₒₙ; kd=koff)

[2] = target: T2, recombinant human RAGE (plate coat of the competition ELISA of Example 1.4); test: competition ELISA on plates coated with recombinant human RAGE (2 µg/mL); competitor: biotinylated hybridoma-derived 11E6 (11E6-biotin), streptavidin-HRP, OD 450 nm; the unit comes from the axis 'Log MAbs (M)'
T2 construct: not shown: The carrier of the coated preparation, if it had one
Procedure: (§1) The purified chimeric anti-human RAGE monoclonal antibodies were tested for their ability to bind human RAGE in a competition ELISA. […] Equal volumes (50 μL) of each recombinant chimeric anti-human RAGE monoclonal antibodies or hybridoma-derived anti-human RAGE monoclonal antibodies and each corresponding biotinylated hybridoma-derived anti-RAGE mAbs were mixed. 50 μL of this mixture was then added to ELISA plates pre-coated with recombinant human RAGE at 2 μg/mL and incubated for 1.5 hours at room temperature. Wells were washed three times with PBS+0.05% Tween-20. Streptavidin HRP (1 mg/mL) was diluted 1:16000 in PBST+10% Superblock; 50 µL/well was added and the plates incubated for 1 hour at room temperature. Plates were washed 3 times with PBS+0.05% Tween-20. 50 µL of TMB solution (Sigma, St Louis, Mo.) was added to each well and incubated for 10 minutes at room temperature. The reaction was stopped by addition of IN sulphuric acid. Plates were read spectrophotometrically at a wavelength of 450 nm.

[3] = target: T3, E. coli RAGE Construct #1, OmpA-[RAGE (23-340)]-6His (human, UniProt Q15109 23-340); test: ELISA, fragment coated at 1 µg/ml
T3 construct: Not glycosylated (E. coli); also called RAGE protein #1; E. coli-expressed sRAGE
Procedure: Antigens (purified construct #1-7 proteins) were diluted into Coating Buffer [100 mM NaHCO₃, pH 8.2] to 1 μg/ml, and 100 μl of the resulting solution was then aliquoted into a 96-well Nunc Immuno Plate (Maxi-Sorb Surface, flat bottom, catalog #439454). The plate was sealed with sealing film and incubated at 4° C. overnight. The next day, the plate wells were each washed 3 times with 150 μL PBST buffer [Sigma PBS+0.05% Tween 20]. Then 300 ul of blocking solution (3% NFDM in PBST) was added to each well. The plate was incubated for 2 hours at room temperature and shaking at 100 rpm. After the incubation step, each well was again washed three times with 150 uL PBST. […] The plate was then sealed with sealing film and incubated for 2 hours at room temperature and shaking at 100 rpm. Next the antibody solution was drained out of the wells, and each well then washed three times with 200 ul PBST. To each well then 200 ul of a 1:5000 dilution (in PBST/1% NFDM) of conjugated secondary antibody [Donkey anti-mouse HRPO conjugate, Jackson Immuno Research, Catalog #715-035-150] was added. The plate was covered and allowed to incubate for 1 hour at room temperature while shaking at 100 rpm. […] Finally, 50 μL of 2M H₂SO₄ was added to each well to stop the reaction and the A₅₄₀ₙₘ of each well was measured using a microtiter plate reader.

[4] = target: T2, recombinant human RAGE (plate coat of …); test: competition ELISA on plates coated with recombinant human RAGE (2 µg/mL); competitor: biotinylated hybridoma-derived 7F9 (7F9-biotin), streptavidin-HRP, OD 450 nm; the unit comes from the axis 'Log MAbs (M)'
Procedure: as §1

[5] = target: T2, recombinant human RAGE (plate coat of …); test: competition ELISA on plates coated with recombinant human RAGE (2 µg/mL); competitor: biotinylated hybridoma-derived 4E5 (4E5-biotin), streptavidin-HRP, OD 450 nm; the unit comes from the axis 'Log MAbs (M)'
Procedure: as §1

T1 sequence (Q15109 23-331): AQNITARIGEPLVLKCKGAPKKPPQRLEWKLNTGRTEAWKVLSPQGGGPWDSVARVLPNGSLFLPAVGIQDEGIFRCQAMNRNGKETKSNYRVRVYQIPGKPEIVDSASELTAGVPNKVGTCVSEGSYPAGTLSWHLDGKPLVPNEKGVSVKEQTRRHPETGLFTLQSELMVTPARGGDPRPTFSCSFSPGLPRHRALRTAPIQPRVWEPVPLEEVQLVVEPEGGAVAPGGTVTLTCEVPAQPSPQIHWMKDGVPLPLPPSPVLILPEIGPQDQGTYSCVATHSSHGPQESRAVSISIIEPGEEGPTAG
T2 sequence (chain, as listed by the source limits assumed): as the sequence (Q15109 23-331) above
T3 sequence (Q15109 other isoform, or with tags, fused parts or gaps limits assumed): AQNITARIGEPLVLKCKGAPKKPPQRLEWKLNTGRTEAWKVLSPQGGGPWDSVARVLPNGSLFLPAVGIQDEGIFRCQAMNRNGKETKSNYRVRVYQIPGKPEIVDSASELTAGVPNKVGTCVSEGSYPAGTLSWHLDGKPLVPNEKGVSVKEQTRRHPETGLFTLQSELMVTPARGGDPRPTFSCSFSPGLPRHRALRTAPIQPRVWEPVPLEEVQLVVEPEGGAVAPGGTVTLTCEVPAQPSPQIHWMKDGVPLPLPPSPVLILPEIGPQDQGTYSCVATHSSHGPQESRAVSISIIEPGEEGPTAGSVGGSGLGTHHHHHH

B1: anti-human RAGE monoclonal antibody 11E6 (murine, hybridoma-derived) (antibody, V domains shown)
VH: QIQLVQSGPELKKPGETVKISCKASGYTFTNFGMNWVKQAPGKGLKWMGYINTNTGESIYSEEFKGRFAFSLETSASTAYLQINNLKNEDTATYFCARSRMVTAYGMDYWGQGTSVTVSS
VL: DIVMTQSQKFMSTSVGDRVSITCKASQNVGTAVAWYQQRPGQSPKLLIFSASNRYTGVPDRFTGSGSGTDFTLTLSNMQPEDLADYFCQQYSSYPLTFGVGTKLELKR
notes: also called mAb11E6; ML37-11E6
Kd [1]: 0.068 nM | koff [1]: 0.0013 s⁻¹ | kon [1]: 1.8e+07 M⁻¹ s⁻¹ | EC50 [2]: 90.9 nM

B2: anti-human RAGE monoclonal antibody 7F9 (murine, hybridoma-derived) (antibody, V domains shown)
VH: EEKLEESGGGLVQLGGSMKISCVASGFTLSNYWMDWVRQSPEKGLEWIAEIRLKSNYYSTHYAESVKGRFSISRDDSKGSVSLQMDNLTAEDTGIYFCARNAYWYFDVWGTGTTVTVSS
VL: DIVMTQSHKFMSTSVGDRVSATCKASQDVGTSVAWYQQKLGQSPKLLIYWTSTRHTGVPDRFTGSGSGTDFTLTISNVQSEDLADYFCQQYNNYPLTFGDGTKLELKR
notes: also called mAb7F9; MAb 7F9
binding result [3]: no binding | EC50 [4]: 166 nM

B3: anti-human RAGE monoclonal antibody 4E5 (murine, hybridoma-derived) (antibody, V domains shown)
VH: QVQLQQSGAELVRPGTSVKVSCKASGYAFNNYLIEWIKQRPGQGLEWIGVINPGSGGTNHNEKFKVKATLTADKSSSTAYIQLSSLTSDDSAVYFCARSAGTARARFAYWGQGTLVTVSA
VL: DIQMTQSPSSLSASLGERVSLTCRASQDIGSSLNWLQQEPDGTIKRLIYATSSLDSGVPKRFSGSRSGSDYSLTISSLESEDFVDYYCLQYASFPFTFGSGTKLEIKR
notes: also called mAb4E5; ML37-4E5
EC50 [5]: 244 nM
